Data published in IntAct's records for PubMed 25394380.

Target: aph1a_human APH1A (UniProt Q96BI3)
Sequence (Q96BI3 whole entry): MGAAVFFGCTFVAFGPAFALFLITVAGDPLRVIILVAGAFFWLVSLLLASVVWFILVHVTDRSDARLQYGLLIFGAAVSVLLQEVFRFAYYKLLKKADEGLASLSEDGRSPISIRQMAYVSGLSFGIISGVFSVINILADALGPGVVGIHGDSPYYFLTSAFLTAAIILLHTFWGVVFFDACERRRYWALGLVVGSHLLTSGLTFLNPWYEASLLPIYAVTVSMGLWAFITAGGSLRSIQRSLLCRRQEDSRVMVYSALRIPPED

effect of a mutation on the interaction: with no effect
Substance: Presenilin-1 (Homo sapiens) (from UniProt P49768) G206D
